Paper PMC8752837, “Structural basis of BAK activation in mitochondrial apoptosis initiation” (Nature Communications, 2022)
Changes are numbered by the printed parent chain. Numbers in names are those of the source.

How the values were obtained:
[1] = system: BCL2allKO HCT116 cells reconstituted with Dox-inducible mC-BAK; assay: Dox-induced cell death by IncuCyte imaging of SYTOX Green uptake (autoactivation); type: cell-based, human; conditions: for SYTOX Green +ve counts/confluence AUC of kinetic traces: Fig 3d; for AUC (48 hr) of SYTOX Green counts/confluence: mC-BAK BCL2allKO HCT116 + Dox + qVD, average, N = 3
Description: For mammalian cell culture experiments, we cloned the full length human BAK cDNA into pCR 2.1 TOPO vector, mutated BAK as needed, and PCR amplified the BAK gene for cloning into the BamHI and NotI sites of pRETROX mCherry vector for retroviral transduction. Amplification and mutagenesis primers are included in Supplementary Table 4. To test direct BAK activation and BAK autoactivation in cells, we produced cells stably expressing mCherry-human BAK (mC-BAK) ± human BID (BID) on a genetic background devoid of the entire BCL-2 family repertoire (all 17 BCL-2 genes), BCL2allKO HCT116, as described by the Xu Luo laboratory. We expressed WT and mutant mC-BAK using the doxycycline (Dox)-based inducible Tet-On 3G retroviral system from the pRetroX-TRE3G-Puro^R in BCL2allKO HCT116 cells expressing the Tet3G from pRetroX-Tet3G-Blast^R. We selected cells with puromycin (2.5 µg/mL) and blasticidin (2 µg/mL) starting at 2 days after retroviral transduction. To enrich for populations of cells that express mC-BAK, we treated cells with low Dox dose (25 ng/mL) and fluorescence-activated cell sorted (FACS) the mCherry positive cells. We performed the enrichment twice before cell death analysis. One caveat of our cellular system is tagging BAK with N-terminal mCherry, which may affect folding efficiency, degradation, and BAK interactome.
(§1) We seeded cells in 24-well (100,000 cells/well), 96-well (15,000 cells/well), or 384-well (10,000 cells/well) plates coated with 10 µg/mL fibronectin. After ≥24 h of attachment and recovery, we induced cell death with Dox (up to 1000 ng/mL) and monitored SYTOX Green (25 nM) uptake by Incucyte imaging. This dye marks cells with compromised plasma membrane integrity. mC-BAK expressed before 24 h, which coincided with detectable cell death. We monitored Incucyte imaging for up to 48 h, followed by endpoint FACS analysis to measure the extent of cell death based on SYTOX Green positive cells on FACSCalibur systems (BD Biosciences). As expected, cells with low mCherry fluorescence were refractory to cell death.

[2] = system: BCL2allKO HCT116 cells expressing mC-BAK and BID; assay: Dox + TRAIL + CHX induced cell death by IncuCyte imaging of SYTOX Green uptake (direct activation); type: cell-based, human; conditions: TRAIL 200 ng/mL + CHX 0.5 µg/mL added at 6 h
Description: We achieved stable, constitutive expression of human BID in mC-BAK expressing BCL2allKO HCT116 by retroviral transduction based on pMX-human-BID-IRES-GFP. Amplification primers are included in Supplementary Table 4. We performed two rounds of FACS sorting gating on GFP-positive cells to enrich for populations of cells that express BID.
For coexpression of mC-BAK + BID, we treated cells with different doses of Dox for 24 h to induce expression of mC-BAK. At 6 h, we treated cells with TRAIL (200 ng/mL) + cycloheximide (CHX, 0.5 µg/mL) to promote BID activation under conditions of protein synthesis inhibition by CHX, and continued to record Incucyte imaging of SYTOX Green uptake up to 48 h. We blocked caspase activity with qVD (40 µM).

[3] = system: BCL2allKO HCT116 cells reconstituted with mC-BAK; assay: Endpoint FACS analysis of SYTOX Green positive cells; type: cell-based, human; conditions: average, N = 3
Description: as §1

[4] = Liposome permeabilization by WT and mutant BAK proteins (autoactivation, or direct activation by BID BH3); type: biochemical; conditions: absence of BID BH3
Description: Human BAK-∆TM-His6 (BAK)[26] spontaneously permeabilizes liposomes above a certain dose (>100 nM, Fig. 1a). In these dye-release assays[43]–[46], BAK is recruited via His-tag to liposomes containing 2.5 µM of the lipid 1,2-dioleoyl-sn-glycero-3-[(N-(5-amino-1-carboxypentyl)iminodiacetic acid)succinyl] (nickel salt), DGS-NTA(Ni).
To probe autoactivation with full-length BAK, we mutated hydrophobic residues at positions (0)−(6) of the BH3 to alanine or arginine, and D83, which forms the conserved salt bridge (s) with R127, to alanine (Fig. 2a). The BH3 residues participate in autoactivation from the ligand side [hydrophobic positions (0)–(5) and D83(s)] and also from the receptor groove side [hydrophobic positions (3)–(5)] (Fig. 2a). Thus, substitutions at positions (3)–(5) should affect receptor and ligand activities and are predicted to impact BAK activation more severely than mutations of positions (0)–(2), which affect only ligand activity. […] In contrast, almost all (2)–(5) and (s) missense mutants were considerably impaired in autoactivation (Fig. 2b and Supplementary Fig. 3a). […] Despite impairment in autoactivation, all missense mutants were directly activated by BID BH3 peptide, although they induced lower level of permeabilization compared to WT BAK (Fig. 2b and Supplementary Fig. 3a).
We performed liposome permeabilization assays as previously described[43]–[46]. […] (nickel salt) [DGS NTA(Ni), 2.5 μM final concentration in each assay] (Avanti Polar Lipids). We prepared 12.5 mM fluorophore; 8-aminonaphthalene-1, 3, 6-trisulfonic acid, disodium salt (ANTS) and 45 mM quencher; p-xylene-bis-pyridiniumbromide (DPX) in LUV buffer (10 mM HEPES pH 6.8, 200 mM KCl and 5 mM MgCl2). We mixed the lipid film in ANTS/DPX solution by vortexing and sonication (~15 min) followed by extrusion through polycarbonate membrane of 2 μm pore size (Avanti Polar lipids) to generate homogenous large unilamellar vesicles (LUVs). We separated LUVs from free ANTS/DPX by S500 size exclusion chromatography and stored them at 4 °C in the dark. We prepared peptide and protein dilutions in 96-well black flat bottom plates (Costar) kept on ice. ANTS release from permeabilized liposomes causes an increase in fluorescence, which we monitored at 37 °C for 90 min using a CLARIOSTAR microplate reader (BMG Labtech) set at excitation and emission wavelengths of 360 and 530 nm, respectively. We normalized the data relative to maximum and minimum fluorescence induced by 3% CHAPS and buffer controls, respectively. We quantified liposome permabilization by integrating area under curve (AUC) of normalized traces based on the Simpson’s equation, and analyzed that data in Excel and GraphPad Prism. AUC measurements reflect the kinetic and extent of liposome permeabilization and provide quantitative means for comparison between different experimental conditions (e.g., BAK mutants with gross or partial variation in activity). Variability in permeabilization of different liposomes is common and our analyses compare among conditions investigated with the same liposomes. Although the absolute permeabilization values may differ, the trends for the same conditions are always very similar between different liposomes.

B1: D83A (s): BAK missense mutant, autoactivation-impaired; in cells as mCherry fusion (protein)
chain: MASGQGPGPPRQECGEPALPSASEEQVAQDTEEVFRSYVFYRHQQEQEAEGVAAPADPEMVTLPLQPSSTMGQVGRQLAIIGADINRRYDSEFQTMLQHLQPTAENAYEYFTKIATSLFESGINWGRVVALLGFGYRLALHVYQHGLTGFLGQVTRFVVDFMLHHCIARWIAQRGGWVAALNLGNG
modifications: left off: His6, C-terminal, kept
notes: in cells as mCherry fusion
- SYTOX Green +ve counts/confluence AUC of kinetic traces ([1]; Dox 6.25 ng/mL): 251.48
- SYTOX Green +ve counts/confluence AUC of kinetic traces ([1]; Dox 6.25 ng/mL + qVD): 178.809
- SYTOX Green +ve counts/confluence AUC of kinetic traces ([1]; Dox 12.5 ng/mL): 298.87
- SYTOX Green +ve counts/confluence AUC of kinetic traces ([1]; Dox 12.5 ng/mL + qVD): 216.467
- SYTOX Green +ve counts/confluence AUC of kinetic traces ([1]; Dox 25 ng/mL): 546.446
- SYTOX Green +ve counts/confluence AUC of kinetic traces ([1]; Dox 25 ng/mL + qVD): 167.305
- SYTOX Green +ve counts/confluence AUC of kinetic traces ([1]; Dox 50 ng/mL): 973.937
- SYTOX Green +ve counts/confluence AUC of kinetic traces ([1]; Dox 50 ng/mL + qVD): 180.875
- SYTOX Green +ve counts/confluence AUC of kinetic traces ([1]; Dox 100 ng/mL): 1429.67
- SYTOX Green +ve counts/confluence AUC of kinetic traces ([1]; Dox 100 ng/mL + qVD): 197.929
- SYTOX Green +ve counts/confluence AUC of kinetic traces ([1]; Dox 500 ng/mL): 1807.16
- SYTOX Green +ve counts/confluence AUC of kinetic traces ([1]; Dox 500 ng/mL + qVD): 226.028
- SYTOX Green +ve counts/confluence AUC of kinetic traces ([1]; Dox 1000 ng/mL): 2018.82
- SYTOX Green +ve counts/confluence AUC of kinetic traces ([1]; Dox 1000 ng/mL + qVD): 223.673
- Dox-induced cell death ([1]; IncuCyte SYTOX Green up to 48 h): consistently less potent at inducing apoptosis than V74A(1)
- AUC (48 hr) of SYTOX Green counts/confluence ([1]; Dox 100 ng/mL): 54126.6
- AUC (48 hr) of SYTOX Green counts/confluence ([1]; Dox 1000 ng/mL): 77700.1
- fold higher expression level for similar cell death compared to V74A ([1]; mC-BAK/actin immunoblot, Fig. 3d): ~ 10 fold
- cell death with Dox + TRAIL + CHX compared to Dox alone [2]: boosted the levels of cell death
- flow cytometry SYTOX Green counts/confluence (48 hr) ([3]; Dox 100 ng/mL): 35.2333
- flow cytometry SYTOX Green counts/confluence (48 hr) ([3]; Dox 1000 ng/mL): 43.7667

B2: M71A (0): BAK missense mutant (protein, UniProt Q16611 2-211, looked up, variant M71A)
Bcl-2 homologous …: ASGQGPGPPRQECGEPALPSASEEQVAQDTEEVFRSYVFYRHQQEQEAEGVAAPADPEMVTLPLQPSSTAGQVGRQLAIIGDDINRRYDSEFQTMLQHLQPTAENAYEYFTKIATSLFESGINWGRVVALLGFGYRLALHVYQHGLTGFLGQVTRFVVDFMLHHCIARWIAQRGGWVAALNLGNGPILNVLVVLGVVLLGQFVVRRFFKS
- autoactivation in liposome permeabilization assays [4]: behave similar to WT BAK

B3: I85A (4): BAK missense mutant (protein, UniProt Q16611 2-211, looked up, variant I85A)
Bcl-2 homologous …: B2 Bcl-2 homologous … with A70M, I84A
- autoactivation in liposome permeabilization assays [4]: activity comparable to WT

B4: R42A: BAK mutant in helix α1 electrostatic network (protein, UniProt Q16611 2-211, looked up, variant R42A)
Bcl-2 homologous …: B2 Bcl-2 homologous … with R41A, A70M
- autoactivation in liposome permeabilization assays [4]: hyperactive compared to WT

B5: I81A (3): BAK missense mutant (protein, UniProt Q16611 2-211, looked up, variant I81A)
Bcl-2 homologous …: B2 Bcl-2 homologous … with A70M, I80A
- AUC (48 hr) of SYTOX Green counts/confluence ([1]; Dox 100 ng/mL): 55640.5
- AUC (48 hr) of SYTOX Green counts/confluence ([1]; Dox 1000 ng/mL): 85389.8
- flow cytometry SYTOX Green counts/confluence (48 hr) ([3]; Dox 100 ng/mL): 37.7333
- flow cytometry SYTOX Green counts/confluence (48 hr) ([3]; Dox 1000 ng/mL): 54.2

B6: E46A: BAK mutant in helix α1 electrostatic network (protein, UniProt Q16611 2-211, looked up, variant E46A)
Bcl-2 homologous …: B2 Bcl-2 homologous … with E45A, A70M
- autoactivation in liposome permeabilization assays [4]: hyperactive compared to WT

B7: R137A: BAK mutant in helix α1 electrostatic network (protein, UniProt Q16611 2-211, looked up, variant R137A)
Bcl-2 homologous …: B2 Bcl-2 homologous … with A70M, R136A
- autoactivation in liposome permeabilization assays [4]: hyperactive compared to WT
